Measured values reported in the supplement of paper PMC10567573.
± gives the standard deviation.

Test: protein stability index of a GFP-peptide fusion (GPS, HEK-293T) (PSI 1-6); higher = more stable
[1] = treatment: DMSO, c terminus: a fixed tail appended
[2] = treatment: MLN4924 1 uM, 8 h, c terminus: a fixed tail appended
[3] = treatment: DMSO, c terminus: native
[4] = treatment: MLN4924 1 uM, 8 h, c terminus: native
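Also: 24-mer peptide tiles fused after GFP, lentivirally expressed, FACS-sorted into six equal bins by GFP/DsRed ratio, decoded by Illumina sequencing, PSI is the read-weighted mean bin number.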

Row | Sequence | protein stability index [1] | protein stability index [2] | protein stability index [3] | protein stability index [4]
1 | IESAHRSRIKVLETSYQQREERLR [FBF1] | 3.85 ± 0.15 | 3.82 ± 0.33 |  | 
2 | FANEEEAKKFRKAVTDLLGRRQRK [WASL] | 3.15 ± 0.24 | 3.52 ± 0.27 |  | 
3 | CSQLLESSYFDSFQEAQIKRKARN [CDKL4] | 3.51 ± 0.56 | 3.528 ± 0.023 |  | 
4 | SWVVRVQAAKLLGSMEQVSSHFLE [INTS4] | 2.47 ± 0.45 | 2.53 ± 0.43 |  | 
5 | CCVDVKPISQEKIESERALISQCG [DUSP5] | 3.69 ± 0.26 | 3.63 ± 0.22 |  | 
6 | EELSVLEVFEGREDSILGDPKKLL [MAGEA3] | 4.38 ± 0.28 | 4.75 ± 0.23 |  | 
7 | VLEIEQSMNRVKNISDADVHNAMD [FEM1B] | 4.13 ± 0.14 | 4.32 ± 0.23 |  | 
8 | SLQLVFGIELMEVDPIGHVYIFAT [MAGEA6] | 2.73 ± 0.21 | 3 ± 0.28 |  | 
9 | GEPQQDCCVKTELLGEETPMAADE [EHMT1] | 5.55 ± 0.25 | 5.53 ± 0.14 |  | 
10 | SAMAENILAAACESETRKAAKRMR [NOL4L] | 4.32 ± 0.2 | 4.69 ± 0.46 |  | 
11 | IDYGANVNQPNNNGFTPLHFAAAS [ANKRD44] | 3.1 ± 0.19 | 3 ± 0.26 |  | 
12 | PRCPRMVLSLKEGAREEDLDAVEA [FBXO3] | 5.32 ± 0.36 | 5.27 ± 0.17 |  | 
13 | LSFAAKQRELHSHVTNAMVLVNVL [DHCR7] | 2.49 ± 0.77 | 2.44 ± 0.79 |  | 
14 | GAHFPQVPGGAVRVAAAAGSGPSP [PI4K2A] | 4.53 ± 0.14 | 4.48 ± 0.088 |  | 
15 | IFQEKHVNLLHIESRKSKRRNSEF [TPH1] | 3.06 ± 0.25 | 3.27 ± 0.28 |  | 
16 | LMRAQRNYMVQTEDQYIFIHDALL [PTPRD] | 2.48 ± 0.46 | 2.41 ± 0.53 |  | 
17 | TQGCHPAWEPRSESQASRKEEGLP [ZNF8] | 4.89 ± 0.25 | 4.96 ± 0.18 |  | 
18 | KVVLSDAYAHPQQKVAVYRALQAA [TRADD] | 2.9 ± 0.41 | 3.24 ± 0.25 |  | 
19 | SNNHHLMLEASEWATIEGLVELLQ [ZBED1] | 2.66 ± 0.14 | 2.71 ± 0.48 |  | 
20 | FDVETRHVFIGDHSGQVTILKLEQ [WDFY2] | 2.2 ± 0.44 | 2.43 ± 0.33 |  | 
21 | EQELLRRQQRLNQLEKPPEKEEDH [FAM107A] | 5.62 ± 0.16 | 5.54 ± 0.12 |  | 
22 | VFAHCKEAPSTASSTPDSTEGGND [RTN2] | 5.42 ± 0.33 | 5.37 ± 0.37 |  | 

Row | Sequence | protein stability index [1] | protein stability index [2] | protein stability index [3] | protein stability index [4]
23 | LLEEEEKQWGPLEREPVRGQCLDS [RTN2] | 5.1 ± 0.3 | 5.26 ± 0.077 |  | 
24 | DDSVMKATQQARKRNFISSKSKQP [C22orf31] | 4.87 ± 0.15 | 4.98 ± 0.2 |  | 
25 | KSSTVGLVTLNDMKAKQEALVKER [FAM50A] | 4.69 ± 0.31 | 4.45 ± 0.39 |  | 
26 | LLLENGAGINTHSNEFKESALTLA [ANKRD17] | 2.32 ± 0.54 | 2.76 ± 0.6 |  | 
27 | PQVLSQEFTELLKVMIHPDPERRP [WEE1] | 3.45 ± 0.17 | 3.43 ± 0.16 |  | 
28 | HVQNQVDEVIDVMQENITKVIERG [VAMP4] | 3.95 ± 0.2 | 4.13 ± 0.52 |  | 
29 | EHNSSLVSQQTGSPGKQPGENSDC [ZNF8] | 5.25 ± 0.3 | 5.39 ± 0.073 |  | 
30 | YMDTKLLVARFLEQSSCTMTPDIH [FAM189A2] | 2.15 ± 0.45 | 2.18 ± 0.084 |  | 
31 | GSDSVIMTGAYNNFFRMFDRNTKR [PPP2R2C] | 3.22 ± 0.22 | 3.39 ± 0.36 |  | 
32 | GNMFPTIGDVHLAPFTDEQLYMEQ [CARM1] | 3.93 ± 0.27 | 4.12 ± 0.19 |  | 
33 | KLSAKSLQTLRSFSHTLVSLSLFG [ZER1] | 3 ± 0.45 | 2.95 ± 0.43 |  | 
34 | QRKKWVDLAWMITFYVRFFLTYVP [FADS1] | 2.79 ± 0.29 | 2.83 ± 0.44 |  | 
35 | PHIEEQQKKIESYLHNHFIGEGMT [TENT5D] | 3.35 ± 0.33 | 3.59 ± 0.27 |  | 
36 | PSEHVQGKSPVNMVTVAMVAGQCE [ZNF649] | 4.14 ± 0.34 | 4.26 ± 0.14 |  | 
37 | QQEVVVAGSSLPTSSKVNATVPSN [ACBD3] | 5.12 ± 0.34 | 4.98 ± 0.23 |  | 
38 | GNPRALSFVLSSLQLGEGVEFDVL [OAS1] | 2.29 ± 0.22 | 2.12 ± 0.32 |  | 
39 | ETLEGREKAFIAHFQDNLHSVNRD [MED27] | 4.32 ± 0.22 | 4.26 ± 0.2 |  | 
40 | QVQSLITNVESQLAEIRCDLERQN [KRT34] | 3.43 ± 0.21 | 3.66 ± 0.33 |  | 
41 | MTTSHQPQDRYKAVWLIFFMLGLG [SLC29A1] | 2.52 ± 0.61 | 2.41 ± 0.43 |  | 
42 | GKWMKKFPESETKECPFRVNKVCG [SERPINB5] | 3.13 ± 0.32 | 3.47 ± 0.38 |  | 
43 | EPELSPAYLISEAMRRSRMSLYC [GFOD1] |  |  | 2.3 ± 0.81 | 2.27 ± 0.3
44 | ISLFFLIIYMGSFMLMLLVLGIQV [CDS1] | 3.18 ± 0.23 | 3.33 ± 0.11 |  | 

Row | Sequence | protein stability index [1] | protein stability index [2] | protein stability index [3] | protein stability index [4]
45 | SINAGSWMWLSCSSFFQQFFHCYC [CRY1] |  | 3.4 ± 0.11 |  | 
46 | QCGETMKETVNVKTVCGYYTSAGT [GMCL1] | 3.7 ± 0.22 | 3.77 ± 0.28 |  | 
47 | YMAICKPLHELITMNRRVCVLMLL [OR4A15] | 2.79 ± 0.49 | 2.35 ± 0.32 |  | 
48 | KDLNENLAATQGLAHMIAECKKLF [DLC1] | 2.39 ± 0.45 | 2.3 ± 0.34 |  | 
49 | QTPEQYYFCYKAILEFAEKEGMVS [PTPN9] | 2.12 ± 0.47 | 2.22 ± 0.35 |  | 
50 | ISVILPTVHEVDIFRCFCPVFLHS [DENND6A] | 3.07 ± 0.19 | 3 ± 0.56 |  | 
51 | QDEPRQGCQPEDRRRRIIINVGGI [KCNG1] | 3.92 ± 0.33 | 4.02 ± 0.2 |  | 
52 | SVQQNGSIYIHVYFTKSGFHPDPR [CLPTM1] | 3.14 ± 0.98 | 2.29 ± 0.56 |  | 
53 | DTNSIAKAIKARGEVIHCKLRAMK [STX11] | 2.82 ± 0.29 | 2.89 ± 0.23 |  | 
54 | GPAAAAAPSLEAPKPSGLEPGPAA [KCTD13] | 5.4 ± 0.11 | 5.39 ± 0.29 |  | 
55 | LGNFKDDLLNVCMRHVEKMCKADL [TRIM29] | 2.36 ± 0.13 | 2.47 ± 0.19 |  | 
56 | SRSQNTDMVQKSVSKTLPSTWSDP [CLINT1] | 3.87 ± 0.28 | 3.98 ± 0.23 |  | 
57 | KQQWEIMHKHNETSQKIAARAFAQ [RSPH3] | 3.41 ± 0.2 | 3.38 ± 0.14 |  | 
58 | AVETEGSGSRHPPWARGCGMFTFL [SLC2A12] | 2.11 ± 0.16 | 2.13 ± 0.28 |  | 
59 | TLRTCYAANPRPDALMKEQLVEMT [ISL2] | 3.53 ± 0.22 | 3.52 ± 0.28 |  | 
60 | TYLCERCQPRNLDKERAVLLQRRK [KMT2E] | 2.57 ± 0.48 | 3.32 ± 0.54 |  | 
61 | VEGKGNGIKTVIVNMVDVAKALNR [EIF5] | 2.14 ± 0.21 | 2.22 ± 0.31 |  | 
62 | LNFQIEHHLFPTMPRHNYHKVAPL [FADS1] | 1.98 ± 0.33 | 2.02 ± 0.51 |  | 
63 | AALIYFAISITAIAKYSDGASKAA [CMTM3] | 3.49 ± 0.37 | 3.43 ± 0.62 |  | 
64 | DIKAEPQPLSPASSSYSVSSPRSV [ATF6] | 4.61 ± 0.14 | 4.74 ± 0.44 |  | 
65 | GGRFRCPSCRHEVVLDRHGVYGLQ [TRIM55] | 2.31 ± 0.23 | 2.36 ± 0.6 |  | 
66 | TTGIVETHFTFKDLHFKMFDVGGQ [GNAI1] | 2.08 ± 0.35 | 2.27 ± 0.14 |  | 

Row | Sequence | protein stability index [1] | protein stability index [2] | protein stability index [3] | protein stability index [4]
67 | NHIGMGVRYNAEKKKVGNYYTTPI [YJU2B] | 3.03 ± 0.22 | 3.27 ± 0.18 |  | 
68 | LQHGDQLSICFTCFKAAFLDFKDL [TEX19] | 2.89 ± 0.52 | 2.51 ± 0.36 |  | 
69 | PRGSETERLLTPNPGYGTQAGPSP [MCOLN1] | 4.41 ± 0.18 | 4.79 ± 0.28 |  | 
70 | YSPRRSRGSPRYSPRHSRSRSRT [SRSF1] |  |  | 4.18 ± 0.35 | 4.49 ± 0.26
71 | KRANAAFLIGAYAVIYLKKTPEEA [CDC14A] | 2.38 ± 0.57 | 2.21 ± 0.22 |  | 
72 | SHLPTRSPSFPEAPDSGRSAPYSA [TBX6] | 4.61 ± 0.21 | 4.52 ± 0.28 |  | 
73 | VSARSREGRGGRPGSTRPHRSACS [HAGHL] | 4.64 ± 0.2 | 4.69 ± 0.44 |  | 
74 | LSLEAVICFKEMLANSWNCLPKHL [KLHDC2] | 2.49 ± 0.35 | 2.37 ± 0.53 |  | 
75 | QVMVSGPNLNETSIVSGGYGGSGD [ARFIP2] | 4.24 ± 0.29 | 4.41 ± 0.41 |  | 
76 | TEPMAWNETADLGLDIGAQGEPLG [CTNNB1] | 5.29 ± 0.23 | 5.25 ± 0.18 |  | 
77 | FQEYDTDCEVFRQRFRQFQYREAA [ZNF449] | 2.77 ± 0.27 | 3.18 ± 0.23 |  | 
78 | AGVSLSTLEELLPPNTRVLRVLPN [PYCR3] | 2.79 ± 0.26 | 2.63 ± 0.23 |  | 
79 | LLNTLSLAFVGGLPLAYQQTSAFA [TMEM175] | 3.2 ± 0.3 | 2.74 ± 0.42 |  | 
80 | YVKVLHHMVKISGGPHISYPPLHE [MAGEA3] | 2.33 ± 0.61 | 2.58 ± 0.31 |  | 
81 | RVAKKLQSGLVWTNCWLIRELNLP [ALDH8A1] | 2.5 ± 0.38 | 2.37 ± 0.54 |  | 
82 | FLCLQYRLRGKLRAEIENLHRTFD [MOG] | 2.41 ± 0.57 | 2.18 ± 0.39 |  | 
83 | MNMLWSRMLKDNKKNWRRVYKSLL [CLINT1] | 2.62 ± 0.74 | 2.58 ± 0.61 |  | 
84 | VLMDTQGAFDSQSTVKDCATIFAL [ATL3] | 2.48 ± 0.35 | 2.55 ± 0.21 |  | 
85 | GTETHGLVQVTLLDTVELATYCVR [PTPRD] | 2.39 ± 0.22 | 2.55 ± 0.51 |  | 
86 | TQQWTAICPLKERRFGAVACGVAM [GAN] | 2.83 ± 0.37 | 2.52 ± 0.55 |  | 
87 | AIQQMGGQWLGGRQIRTNWATRKP [TIA1] | 2.8 ± 0.29 | 3.21 ± 0.44 |  | 
